As usually defined, the stoichiometry N is the number of molecules, sites or subunits per partner or assembly.

9 proteins from article PMC8406312, “Reovirus Nonstructural Protein σNS Recruits Viral RNA to Replication Organelles” (mBio, 2021) can be followed below.

Data set [1] concerns the molecule itself. Description: native gel or EMSA; 35S-labelled σNS expressed in rabbit reticulocyte lysate, incubated without RNase A (125 mM NaCl) at 37°C for 1 h; blue native PAGE, 4-16% bis-Tris, 4°C; autoradiography; RNA of the lysate present, the ladders of oligomers are RNA-dependent. On the technique in general: In EMSA bound probe runs differently from free probe, usually more slowly.

Data set [2] deals with the molecule itself. Nature of the data set: native gel or EMSA; 35S-labelled σNS expressed in rabbit reticulocyte lysate, incubated with 10 μg RNase A at 37°C for 1 h; blue native PAGE, 4-16% bis-Tris, 4°C; autoradiography.

B1: reovirus nonstructural protein σNS, wild type, in vitro expressed (natural protein)
chain: MASSLRAAISKIKRDDVGQQVCPNYVMLRSSVTTKVVRNVVEYQIRTGGFFSCLAMLRPLQYAKRERLLGQRNLERISTRDILQTRDLHSLCMPTPDAPMSNHQASTMRELICSYFKVDHADGLKYIPMDERYSPSSLARLFTMGMAGLHITTEPSYKRVPIMHLAADLDCMTLALPYMITLDGDTVVPVAPTLSAEQLLDDGLKGLACMDISYGCEVDANSRPAGDQSMDSSRCINELYCEETAEAICVLKTCLVLNCMQFKLEMDDLAHNAAELDKIQMMIPFSERVFRMASSFATIDAQCFRFCVMMKDKNLKIDMRETTRLWTRSASDDSVATSSLSISLDRGRWVAADASDARLLVFPIRV
modifications: [35S]methionine-labelled
notes: nonstructural protein σNS of mammalian orthoreovirus (reovirus) strain T3D, S3 gene; same plasmid as m1, expressed in reticulocyte lysate; also called WT σNS; source: in vitro translated (TNT T7 polymerase-coupled rabbit reticulocyte lysate), not purified
As for B1, the “stoichiometry N” value is at least 6 in data set [1] and 2 in data set [2].

B2: σNS R14A, in vitro expressed (natural protein)
chain: MASSLRAAISKIKADDVGQQVCPNYVMLRSSVTTKVVRNVVEYQIRTGGFFSCLAMLRPLQYAKRERLLGQRNLERISTRDILQTRDLHSLCMPTPDAPMSNHQASTMRELICSYFKVDHADGLKYIPMDERYSPSSLARLFTMGMAGLHITTEPSYKRVPIMHLAADLDCMTLALPYMITLDGDTVVPVAPTLSAEQLLDDGLKGLACMDISYGCEVDANSRPAGDQSMDSSRCINELYCEETAEAICVLKTCLVLNCMQFKLEMDDLAHNAAELDKIQMMIPFSERVFRMASSFATIDAQCFRFCVMMKDKNLKIDMRETTRLWTRSASDDSVATSSLSISLDRGRWVAADASDARLLVFPIRV
modifications: [35S]methionine-labelled
notes: nonstructural protein σNS of mammalian orthoreovirus (reovirus) strain T3D, S3 gene; same plasmid as m4; also called R14A σNS; source: in vitro translated (TNT T7 polymerase-coupled rabbit reticulocyte lysate), not purified
Consider B2, for which, in data set [1], the “stoichiometry N” value worked out at 2.

B3: σNS K35A, in vitro expressed (natural protein)
chain: MASSLRAAISKIKRDDVGQQVCPNYVMLRSSVTTAVVRNVVEYQIRTGGFFSCLAMLRPLQYAKRERLLGQRNLERISTRDILQTRDLHSLCMPTPDAPMSNHQASTMRELICSYFKVDHADGLKYIPMDERYSPSSLARLFTMGMAGLHITTEPSYKRVPIMHLAADLDCMTLALPYMITLDGDTVVPVAPTLSAEQLLDDGLKGLACMDISYGCEVDANSRPAGDQSMDSSRCINELYCEETAEAICVLKTCLVLNCMQFKLEMDDLAHNAAELDKIQMMIPFSERVFRMASSFATIDAQCFRFCVMMKDKNLKIDMRETTRLWTRSASDDSVATSSLSISLDRGRWVAADASDARLLVFPIRV
modifications: [35S]methionine-labelled
notes: nonstructural protein σNS of mammalian orthoreovirus (reovirus) strain T3D, S3 gene; same plasmid as m8; also called K35A σNS; source: in vitro translated (TNT T7 polymerase-coupled rabbit reticulocyte lysate), not purified
With B3, the “stoichiometry N” value in data set [1] came to 2.

B4: σNS TriA (K11A, K13A, and R14A), in vitro expressed (natural protein)
chain: MASSLRAAISAIAADDVGQQVCPNYVMLRSSVTTKVVRNVVEYQIRTGGFFSCLAMLRPLQYAKRERLLGQRNLERISTRDILQTRDLHSLCMPTPDAPMSNHQASTMRELICSYFKVDHADGLKYIPMDERYSPSSLARLFTMGMAGLHITTEPSYKRVPIMHLAADLDCMTLALPYMITLDGDTVVPVAPTLSAEQLLDDGLKGLACMDISYGCEVDANSRPAGDQSMDSSRCINELYCEETAEAICVLKTCLVLNCMQFKLEMDDLAHNAAELDKIQMMIPFSERVFRMASSFATIDAQCFRFCVMMKDKNLKIDMRETTRLWTRSASDDSVATSSLSISLDRGRWVAADASDARLLVFPIRV
modifications: [35S]methionine-labelled
notes: nonstructural protein σNS of mammalian orthoreovirus (reovirus) strain T3D, S3 gene; same plasmid as m5; also called TriA σNS; source: in vitro translated (TNT T7 polymerase-coupled rabbit reticulocyte lysate), not purified
With B4, the “stoichiometry N” value in data set [1] was 2.

B5: σNS R38A, in vitro expressed (natural protein)
chain: MASSLRAAISKIKRDDVGQQVCPNYVMLRSSVTTKVVANVVEYQIRTGGFFSCLAMLRPLQYAKRERLLGQRNLERISTRDILQTRDLHSLCMPTPDAPMSNHQASTMRELICSYFKVDHADGLKYIPMDERYSPSSLARLFTMGMAGLHITTEPSYKRVPIMHLAADLDCMTLALPYMITLDGDTVVPVAPTLSAEQLLDDGLKGLACMDISYGCEVDANSRPAGDQSMDSSRCINELYCEETAEAICVLKTCLVLNCMQFKLEMDDLAHNAAELDKIQMMIPFSERVFRMASSFATIDAQCFRFCVMMKDKNLKIDMRETTRLWTRSASDDSVATSSLSISLDRGRWVAADASDARLLVFPIRV
modifications: [35S]methionine-labelled
notes: nonstructural protein σNS of mammalian orthoreovirus (reovirus) strain T3D, S3 gene; same plasmid as m9; also called R38A σNS; source: in vitro translated (TNT T7 polymerase-coupled rabbit reticulocyte lysate), not purified
Consider B5, for which, in data set [1], the “stoichiometry N” value is 2.

B6: σNS K11A, in vitro expressed (natural protein)
chain: MASSLRAAISAIKRDDVGQQVCPNYVMLRSSVTTKVVRNVVEYQIRTGGFFSCLAMLRPLQYAKRERLLGQRNLERISTRDILQTRDLHSLCMPTPDAPMSNHQASTMRELICSYFKVDHADGLKYIPMDERYSPSSLARLFTMGMAGLHITTEPSYKRVPIMHLAADLDCMTLALPYMITLDGDTVVPVAPTLSAEQLLDDGLKGLACMDISYGCEVDANSRPAGDQSMDSSRCINELYCEETAEAICVLKTCLVLNCMQFKLEMDDLAHNAAELDKIQMMIPFSERVFRMASSFATIDAQCFRFCVMMKDKNLKIDMRETTRLWTRSASDDSVATSSLSISLDRGRWVAADASDARLLVFPIRV
modifications: [35S]methionine-labelled
notes: nonstructural protein σNS of mammalian orthoreovirus (reovirus) strain T3D, S3 gene; same plasmid as m3; also called K11A σNS; source: in vitro translated (TNT T7 polymerase-coupled rabbit reticulocyte lysate), not purified
As to B6, in data set [1], the “stoichiometry N” value is 2.

B7: σNS R6A, in vitro expressed (natural protein)
chain: MASSLAAAISKIKRDDVGQQVCPNYVMLRSSVTTKVVRNVVEYQIRTGGFFSCLAMLRPLQYAKRERLLGQRNLERISTRDILQTRDLHSLCMPTPDAPMSNHQASTMRELICSYFKVDHADGLKYIPMDERYSPSSLARLFTMGMAGLHITTEPSYKRVPIMHLAADLDCMTLALPYMITLDGDTVVPVAPTLSAEQLLDDGLKGLACMDISYGCEVDANSRPAGDQSMDSSRCINELYCEETAEAICVLKTCLVLNCMQFKLEMDDLAHNAAELDKIQMMIPFSERVFRMASSFATIDAQCFRFCVMMKDKNLKIDMRETTRLWTRSASDDSVATSSLSISLDRGRWVAADASDARLLVFPIRV
modifications: [35S]methionine-labelled
notes: nonstructural protein σNS of mammalian orthoreovirus (reovirus) strain T3D, S3 gene; same plasmid as m2; also called R6A σNS; source: in vitro translated (TNT T7 polymerase-coupled rabbit reticulocyte lysate), not purified
For the protein B7, in data set [1], the “stoichiometry N” value was 2.

B8: σNS R29A, in vitro expressed (natural protein)
chain: MASSLRAAISKIKRDDVGQQVCPNYVMLASSVTTKVVRNVVEYQIRTGGFFSCLAMLRPLQYAKRERLLGQRNLERISTRDILQTRDLHSLCMPTPDAPMSNHQASTMRELICSYFKVDHADGLKYIPMDERYSPSSLARLFTMGMAGLHITTEPSYKRVPIMHLAADLDCMTLALPYMITLDGDTVVPVAPTLSAEQLLDDGLKGLACMDISYGCEVDANSRPAGDQSMDSSRCINELYCEETAEAICVLKTCLVLNCMQFKLEMDDLAHNAAELDKIQMMIPFSERVFRMASSFATIDAQCFRFCVMMKDKNLKIDMRETTRLWTRSASDDSVATSSLSISLDRGRWVAADASDARLLVFPIRV
modifications: [35S]methionine-labelled
notes: nonstructural protein σNS of mammalian orthoreovirus (reovirus) strain T3D, S3 gene; same plasmid as m7; also called R29A σNS; source: in vitro translated (TNT T7 polymerase-coupled rabbit reticulocyte lysate), not purified
Take B8: the “stoichiometry N” value in data set [1] stood at 2.

B9: σNS Y25A, in vitro expressed (natural protein)
chain: MASSLRAAISKIKRDDVGQQVCPNAVMLRSSVTTKVVRNVVEYQIRTGGFFSCLAMLRPLQYAKRERLLGQRNLERISTRDILQTRDLHSLCMPTPDAPMSNHQASTMRELICSYFKVDHADGLKYIPMDERYSPSSLARLFTMGMAGLHITTEPSYKRVPIMHLAADLDCMTLALPYMITLDGDTVVPVAPTLSAEQLLDDGLKGLACMDISYGCEVDANSRPAGDQSMDSSRCINELYCEETAEAICVLKTCLVLNCMQFKLEMDDLAHNAAELDKIQMMIPFSERVFRMASSFATIDAQCFRFCVMMKDKNLKIDMRETTRLWTRSASDDSVATSSLSISLDRGRWVAADASDARLLVFPIRV
modifications: [35S]methionine-labelled
notes: nonstructural protein σNS of mammalian orthoreovirus (reovirus) strain T3D, S3 gene; same plasmid as m6; also called Y25A σNS; source: in vitro translated (TNT T7 polymerase-coupled rabbit reticulocyte lysate), not purified
Take B9: the “stoichiometry N” value in data set [1] turned out to be 2.
